Substitutions are numbered along the chain they refer to.
T1: huBCMA on HEK cells (Homo sapiens, UniProt Q02223)
T1 construct: expressed in transfected cells; host or cells: HEK cells (HEK-huBCMA)
T1 sequence (Q02223 1-184): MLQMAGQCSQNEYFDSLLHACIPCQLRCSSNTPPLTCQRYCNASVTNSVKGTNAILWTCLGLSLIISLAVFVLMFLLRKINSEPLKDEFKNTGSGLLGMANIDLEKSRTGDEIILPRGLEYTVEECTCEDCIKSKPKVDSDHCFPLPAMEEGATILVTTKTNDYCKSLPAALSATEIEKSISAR

T2: huBCMA Fc(kih) (Homo sapiens, UniProt Q02223)
T2 construct: The extracellular domains of human and cynomolgus BCMA comprised methionine 4 to asparagine 53, and methionine 4 to asparagine 52, respectively; made in house; host or cells: HEK EBNA cells
T2 sequence (Q02223 4-53): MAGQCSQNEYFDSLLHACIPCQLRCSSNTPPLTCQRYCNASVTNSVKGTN

B1: Mab 21: anti-BCMA antibody, VH SEQ ID NO:10, VL SEQ ID NO:12 (antibody, V domains shown)
VH: EVQLLESGGGLVQPGGSLRLSCAASGFTFSDNAMGWVRQAPGKGLEWVSAISGPGSSTYYADSVKGRFTISRDNSKNTLYLQMNSLRAEDTAVYYCAKVLGWFDYWGQGTLVTVSS
VL: EIVLTQSPGTLSLSPGERATLSCRASQSVSEYYLAWYQQKPGQAPRLLIEHASTRATGIPDRFSGSGSGTDFTLTISRLEPEDFAVYYCQQYGYPPDFTFGQGTKVEIK
modifications: Variable region VH; Variable region VL
B2: Mab 22: anti-BCMA antibody, VH SEQ ID NO:10, VL SEQ ID NO:13 (antibody, V domains shown)
VH: B1 VH
VL: B1 VL with E31S, E50S, H51G, S53G, T54S
modifications: Variable region VH; Variable region VL Mab22
B3: Mab 39: anti-BCMA antibody, VH SEQ ID NO:40, VL SEQ ID NO:12 (antibody, V domains shown)
VH: B1 VH with S30T, D31Q, G53P, P54T, S56F
VL: B1 VL
modifications: Mab39 VH; Variable region VL
B4: Mab 27: anti-BCMA antibody, VH SEQ ID NO:38, VL SEQ ID NO:12 (antibody, V domains shown)
VH: EVQLLESGGGLVQPGGSLRLSCAASGFTFSSAPMGWVRQAPGKGLEWVSAISYIGHTYYADSVKGRFTISRDNSKNTLYLQMNSLRAEDTAVYYCAKVLGWFDYWGQGTLVTVSS
VL: B1 VL
modifications: Mab27 VH; Variable region VL
B5: Mab 42: anti-BCMA antibody, VH SEQ ID NO:10, VL SEQ ID NO:14 (antibody, V domains shown)
VH: B1 VH
VL: B1 VL with E31D, Y32E, A35S, E50H, H51S, T75A
modifications: Variable region VH; Variable region VL Mab42
B6: Mab 33: anti-BCMA antibody, VH SEQ ID NO:39, VL SEQ ID NO:12 (antibody, V domains shown)
VH: B1 VH with S30Y, D31T, S52N, G53R, P54F, S56G
VL: B1 VL
modifications: Mab33 VH; Variable region VL

Molecular target: T1, huBCMA on HEK cells
Experiment: Binding of IgG variants on HEK-huBCMA cells (flow cytometry)
Settings: not given
Text: FIGS. 18A-18B. FIG. 18A: Binding affinity of BCMA antibodies on HEK-huBCMA cells as measured by flow cytometry. The anti-BCMA antibodies were used as first antibody then a secondary PE-labeled anti-human Fc was used as detection antibody. […] FIG. 18B: Binding affinity of BCMA antibodies on HEK-huBCMA cells as measured by flow cytometry. The anti-BCMA antibodies were used as first antibody then a secondary PE-labeled anti-human Fc was used as detection antibody.
Due to their experience the inventors selected out of these 70 clones further 27 clones based on their binding properties to huBCMA, cynoBCMA, murineBCMA, and ratio, measured in different assays. Out of these clones 4VH and 9VL clones were selected, which results in […]. Binding affinity on HEK-huBCMA cells was measured (FIG. 18 and Table 2E). […] However Mab21, Mab 22, Mab27, Mab33, Mab39, and Mab42 were selected due to their overall properties, like affinity for huBCMA, cynoBCMA, binding as bispecific antibody to BCMA-positive multiple myeloma cell lines H929, L363 and RPMI-8226 by flow cytometry, killing potency of myeloma cells H929, L363 and RPMI-8226, of viable myeloma plasma cells from patient bone marrow aspirates, and pharmacokinetics (PK)) and pharmacodynamics (killing of BCMA positive cells) data in cynomolgus monkeys.

Molecule | binding to huBCMA on HEK cells compared with Mab 83A10
B1 | not significantly better
B2 | not significantly better
B3 | not significantly better
B4 | not significantly better
B5 | not significantly better

Test system: cynoBCMA Fc(kih)
Experiment: Biacore T200 SPR, anti-BCMA antibodies to recombinant cynomolgus BCMA Fc(kih); cyno/hu affinity gap
Assay type: binding
Settings: analyte cynoBCMA Fc(kih), 1:1 Langmuir, 25° C.
Description: Assessment of binding of anti-BCMA antibodies to recombinant BCMA by surface plasmon resonance (SPR) as follow. All SPR experiments were performed on a Biacore T200 at 25° C. with HBS-EP as running buffer (0.01 M HEPES pH 7.4, 0.15 M NaCl, 3 mM EDTA, 0.005% Surfactant P20, Biacore, Freiburg/Germany). The avidity of the interaction between anti-BCMA antibodies and recombinant BCMA Fc(kih) (human and cynomolgus) was determined. Biotinylated recombinant human and cynomolgus BCMA Fc(kih) were directly coupled on a SA chip following instructions (Biacore, Freiburg/Germany). The immobilization level ranged from 200 to 700 RU. The anti-BCMA antibodies were passed at a 2-fold concentration range (1.95 to 500 nM) with a flow of 30 μL/minutes through the flow cells over 120 seconds. The dissociation was monitored for 180 seconds. Bulk refractive index differences were corrected for by subtracting the response obtained on the reference flow cell. Here, the anti-BCMA antibodies were flown over an empty surface previously activated and deactivated as described in the standard amine coupling kit. Apparent kinetic constants were derived using the Biacore T200 Evaluation Software (vAA, Biacore AB, Uppsala/Sweden), to fit rate equations for 1:1 Langmuir binding by numerical integration, despite the bivalency of the interaction for comparison purposes. The affinity of the interaction between anti-BCMA antibodies and recombinant human BCMA Fc(kih) was also determined. Anti-human Fab antibody (GE Healthcare) was directly coupled on a CMS chip at pH 5.0 using the standard amine coupling kit (Biacore, Freiburg/Germany). The immobilization level was about 6500 RU. Anti-BCMA antibody was captured for 90 seconds at 25 nM. Recombinant human BCMA Fc(kih) was passed at a 4-fold concentration range (1.95 to 500 nM) with a flow of 30 μL/minutes through the flow cells over 120 seconds. The dissociation was monitored for 120 seconds. Bulk refractive index differences were corrected for by subtracting the response obtained on reference flow cell. […] Kinetic constants were derived using the Biacore T100 Evaluation Software (vAA, Biacore AB, Uppsala/Sweden), to fit rate equations for 1:1 Langmuir binding by numerical integration (Table 4).
Based on the affinity values described in Example 2, the affinity of anti-BCMA antibodies to human BCMA vs. cynomolgus BCMA were compared and cyno/hu affinity ratio (gap) values were calculated (Table 5). Affinity cyno/hu gap was calculated as affinity of antibody to cynomolgus BCMA divided by affinity to human BCMA and means that BCMA antibody binds to human BCMA with x fold binding affinity than to cynomolgus BCMA, where x=cyno/hu gap value.

Molecule | Koff [s⁻¹] | Kon [M⁻¹ s⁻¹]
B1 | 0.000235 | 491000
B2 | 0.000442 | 454000
B3 | 0.000467 | 215000
B6 | 9.76e-05 | 132000
B4 | 0.000455 | 216000
B5 | 0.000453 | 707000

Molecular target: T2, huBCMA Fc(kih)
Experiment: Biacore T200 SPR, anti-BCMA antibodies to recombinant human BCMA Fc(kih)
Assay type: binding
Settings: analyte huBCMA Fc(kih), 1:1 Langmuir, 25° C.
Description: Assessment of binding of anti-BCMA antibodies to recombinant BCMA by surface plasmon resonance (SPR) as follow. All SPR experiments were performed on a Biacore T200 at 25° C. with HBS-EP as running buffer (0.01 M HEPES pH 7.4, 0.15 M NaCl, 3 mM EDTA, 0.005% Surfactant P20, Biacore, Freiburg/Germany). The avidity of the interaction between anti-BCMA antibodies and recombinant BCMA Fc(kih) (human and cynomolgus) was determined. Biotinylated recombinant human and cynomolgus BCMA Fc(kih) were directly coupled on a SA chip following instructions (Biacore, Freiburg/Germany). The immobilization level ranged from 200 to 700 RU. The anti-BCMA antibodies were passed at a 2-fold concentration range (1.95 to 500 nM) with a flow of 30 μL/minutes through the flow cells over 120 seconds. The dissociation was monitored for 180 seconds. Bulk refractive index differences were corrected for by subtracting the response obtained on the reference flow cell. Here, the anti-BCMA antibodies were flown over an empty surface previously activated and deactivated as described in the standard amine coupling kit. Apparent kinetic constants were derived using the Biacore T200 Evaluation Software (vAA, Biacore AB, Uppsala/Sweden), to fit rate equations for 1:1 Langmuir binding by numerical integration, despite the bivalency of the interaction for comparison purposes. The affinity of the interaction between anti-BCMA antibodies and recombinant human BCMA Fc(kih) was also determined. Anti-human Fab antibody (GE Healthcare) was directly coupled on a CMS chip at pH 5.0 using the standard amine coupling kit (Biacore, Freiburg/Germany). The immobilization level was about 6500 RU. Anti-BCMA antibody was captured for 90 seconds at 25 nM. Recombinant human BCMA Fc(kih) was passed at a 4-fold concentration range (1.95 to 500 nM) with a flow of 30 μL/minutes through the flow cells over 120 seconds. The dissociation was monitored for 120 seconds. Bulk refractive index differences were corrected for by subtracting the response obtained on reference flow cell. Here, recombinant BCMA was flown over a surface with immobilized anti-human Fab antibody but on which HBS-EP has been injected rather than anti-BCMA antibody. Kinetic constants were derived using the Biacore T100 Evaluation Software (vAA, Biacore AB, Uppsala/Sweden), to fit rate equations for 1:1 Langmuir binding by numerical integration (Table 4).

Molecule | Koff [s⁻¹] | Kon [M⁻¹ s⁻¹]
B1 | 4.39e-05 | 851000
B2 | 5.15e-05 | 814000
B3 | 5.58e-05 | 361000
B6 | 3.55e-05 | 200000
B4 | 5.93e-05 | 359000
B5 | 0.000298 | 803000

From US20220002427A1, “BISPECIFIC ANTIBODY AGAINST BCMA AND CD3 AND AN IMMUNOLOGICAL DRUG FOR COMBINED USE IN TREATING MULTIPLE MYELOMA” (ENGMAB SARL, priority 2016, published 2022)
